Laboratory results reported in patent publication US20140155325A1 (Janssen / Centocor, published 2014).

How the values were obtained:
[1] = molecular target: T1, human EGFR (epidermal growth factor receptor) on cells (human, UniProt P00533 25-1210); assay: cell-based or functional assay
[2] = molecular target: T1, human EGFR (epidermal growth factor …); assay: A431 cell binding, anti-His-Alexa488
[3] = molecular target: T1, human EGFR (epidermal growth factor …); assay: A431 cell EGF competition (biotinylated EGF)
[4] = molecular target: T2, recombinant human extracellular domain of EGFR fused to an IgG1 Fc (human, UniProt P00533 25-645); assay: SPR (ProteOn), EGFR-Fc captured by anti-human Fc
T2 construct: Bought from R&D Systems; captured on anti-human Fc IgG in the SPR assays; also called EGFR-Fc; recombinant EGFR extracellular domain; not shown: IgG1 Fc of the bought fusion protein (R&D Systems)
Procedure: Select EGFR-binding FN3 domains were screened to identify those with slow off-rates (koff) in binding to EGFR-Fc on a ProteOn XPR-36 instrument (Bio-Rad) to facilitate selection of high affinity binders. Goat anti-human Fc IgG (R&D systems), at a concentration of 5 μg/mL, was directly immobilized via amine coupling (at pH 5.0) on all 6 ligand channels in horizontal orientation on the chip with a flow rate of 30 μL/min in PBS containing 0.005% Tween-20. The immobilization densities averaged about 1500 Response Units (RU) with less than 5% variation among different channels. EGFR-Fc was captured on the anti-human Fc IgG surface to a density around 600 RU in vertical ligand orientation. All tested FN3 domains were normalized to a concentration of 1 μM and tested for their binding in horizontal orientation. All 6 analyte channels were used for the FN3 domains to maximize screening throughput. The dissociation phase was monitored for 10 minutes at a flow rate of 100 μL/min. The inter-spot binding signals were used as references to monitor non-specific binding between analytes and the immobilized IgG surface, and were subtracted from all binding responses. […]
Binding affinity of selected EGFR-binding FN3 domains to recombinant EGFR extracellular domain was further characterized by surface Plasmon resonance methods using a Proteon Instrument (BioRad). […]

- NCI-H292 Growth IC50 [1]: 44 nM
- NCI-H322 Growth IC50 [1]: 39 nM
- Phospho-EGFR IC50 (EGF-stimulated, A431 cells) [1]: 295 nM
- EC50 [2]: 8.6 nM
- IC50 [3]: 7.1 nM
- Kd [4]: 2.51 nM
B1: P54AR4-47 (designed binder)
chain: LPAPKNLVVSEVTEDSLRLSWWDPFSFYDSFLIQYQESEKVGEAINLTVPGSERSYDLTGLKPGTEYTVSIYGVHNVYKDTNMRGLPLSAEFTT
